Substitutions are numbered along the chain they refer to.
T1: hIL-33WT (human, UniProt O95760 112-270, limits assumed)
T1 sequence (looked up): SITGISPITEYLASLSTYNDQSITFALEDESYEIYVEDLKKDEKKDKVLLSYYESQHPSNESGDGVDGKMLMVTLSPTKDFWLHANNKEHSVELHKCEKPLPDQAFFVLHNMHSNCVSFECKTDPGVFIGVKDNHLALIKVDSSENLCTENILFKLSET

T2: 人IL33-his重组蛋白 (human, UniProt O95760 112-270)
T2 construct: range 112-270; also called human IL-33; not shown: his tag
T2 sequence (looked up): T1 sequence (looked up)

B1: ANB020 (antibody, V domains shown)
VH: QVQLMQSGAEVKKPGASVKVSCKASGYTFTSYWMHWVRQAPGQGLEWMGTIYPRNSNTDYNQKFKARVTMTRDTSTSTVYMELSSLRSEDTAVYYCARPLYYYLTSPPTLFWGQGTLVTVSS
VL: DIQLTQSPSFLSASVGDRVTLTCKASQDVGTAVAWTQQKPGKAPKLLIYWASTRHTGVPSRFSGSGSGTEFTLTISSLQPEDFATYYCQQAKTYPFTFGSGTKLEIK
notes: The variable regions were cloned into vectors holding human IgG1 light and heavy chain constant regions; also called 对照抗体ANB020; 对照抗体
B2: ch25D8 (antibody, human IgG1, kappa, V domains shown)
VH: QVQLQQSGTELVKPGASVKLSCKTSGYTFTSYWIQWVKQRPGQGLGWIGEIFPGTGTTYYNEKFKGKATLTTDTSSTTAYMQLSSLTSEDSAVYFCARRIRDYYGSNYFDYWGQGTTLTVSS
VL: QIVLTQSPAIMSASPGEKVTITCSASSSVSYMHWFQQKPGTSPKLWIYRTSNLASGVPDRFSGSGSGTSYSLTISRMEAEDAATYYCLQRSTYLFMFGAGTKLELKR
notes: also called 嵌合抗体ch25D8; 25D8分子的嵌合抗体
B3: ch25H12 (antibody, human IgG1, kappa, V domains shown)
VH: EVQLQQSGAELVKPGASVKLSCTASGFNIKDTYIHWVKQRPEQGLEWIGRIDPTADNTKYHPKFQGKATLTADTSSNTAYLQLSSLTSEDTAVYFCARGSSYALDYWGQGTSVTVSS
VL: B2 VL with L88Q, T92S
notes: Human-mouse chimeric IgG1/kappa expressed in HEK293 and purified on Protein A; also called 嵌合抗体ch25H12
B4: h25D8H1L1 (antibody, human IgG1, kappa, V domains shown)
VH: QVQLVQSGAEVKKPGASVKLSCKTSGYTFTSYWIQWVRQAPGQGLEWIGEIFPGTGTTYYNQKFQGRATLTTDTSTTTAYMELSSLRSEDTAVYFCARRIRDYYGSNYFDYWGQGTTLTVSS
VL: DIQLTQSPSSMSASVGDRVTITCRASSSVSYMHWFQQKPGKAPKLWIYRTSNLQSGVPSRFSGSGSGTDYTLTISSMQPEDFATYYCLQRSTYLFMFGQGTKLELKR
notes: also called 人源化抗体h25D8H1L1; hzVH1/hzVL1

Experiments:
[1] = biological target: T1, hIL-33WT; experiment: cell-based or functional assay
[2] = biological target: T2, 人IL33-his重组蛋白; experiment: BLI (ForteBio), antibody captured on AHC probe, IL33-his 15-60 nM in solution, 1:1 fit
[3] = biological target: T2, 人IL33-his重组蛋白; experiment: BLI (ForteBio), Example 3

| IC50 of inhibition of IL-33-stimulated IL-5 production by KU812 cells [1] | Kd [2] | koff [2] | kon [2] | Kd [3] | koff [3] | kon [3] | Binder |
| --- | --- | --- | --- | --- | --- | --- | --- |
| 5.82 mg/L | 6.7 nM | 0.000419 s⁻¹ | 62500 M⁻¹ s⁻¹ |  |  |  | B1 |
|  | 0.9 nM | 7.53e-05 s⁻¹ | 83600 M⁻¹ s⁻¹ | 0.617 nM | 0.000472 s⁻¹ | 766000 M⁻¹ s⁻¹ | B2 |
|  | 77.7 nM | 0.000619 s⁻¹ | 7970 M⁻¹ s⁻¹ |  |  |  | B3 |
| 0.677 mg/L |  |  |  | 0.61 nM | 0.000366 s⁻¹ | 600000 M⁻¹ s⁻¹ | B4 |
